Target: zebrafish VPS26 (zebrafish, UniProt Q6TNP8 1-327)
Test: cryo-EM structure; cryo-electron tomography with subtomogram averaging of coats reconstituted on PI(3)P- and DGS-Ni-NTA-containing liposomes: 2.5 uM core trimer, 3.5x molar excess of adaptor (SNX3 or Grd19) and the corresponding His-tagged cargo peptide (Wls or Kex2), liposomes 0.16 mg/ml, 4 hours at 22°C in buffer A (20 mM Hepes-KOH pH 7.5, 200 mM NaCl, 1 mM TCEP)
Settings: both partners purified

B1: His6Wls (peptide, UniProt Q6DID7 493-541, looked up)
chain: APSHKNYGEDQSNGDLGVHSGEELQLTTTITHVDGPTEIYKLTRKEAQE
notes: Wntless (Wls), residues 493 to 541 (C-terminal domain), UniProt Q6DID7; Cloned in pRSFDuet-1; attached to the liposome membrane (liposomes contain DGS-Ni-NTA); also called Wntless cargo peptide; Wls cargo tail peptide; source: E. coli BL21(DE3), purified (Ni-NTA, Superdex Peptide 10/300)
binding result: binds

From publication PMC7990337, “Architecture and mechanism of metazoan retromer:SNX3 tubular coat assembly” (Science Advances, 2021)
